In publication PMC10397247:
One block for each binder: values may come before it.

Tests used:
4H717-bN = molecular target: T1, 4H717-bN; assay: two-hybrid library CCNG1;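 note: natural log of median RNA to DNA barcode read ratio; higher means stronger binding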
T1 chain: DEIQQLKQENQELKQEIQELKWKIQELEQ

4H457-bN = molecular target: T2, 4H457-bN; assay: two-hybrid library CCNG1;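 note: natural log of median RNA to DNA barcode read ratio; higher means stronger binding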
T2 chain: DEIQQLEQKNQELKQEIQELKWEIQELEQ

4H687-bN = molecular target: T3, 4H687-bN; assay: two-hybrid library CCNG1;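 note: natural log of median RNA to DNA barcode read ratio; higher means stronger binding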
T3 chain: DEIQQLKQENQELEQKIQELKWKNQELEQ

4H72-bN = molecular target: T4, 4H72-bN; assay: two-hybrid library CCNG1;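 note: natural log of median RNA to DNA barcode read ratio; higher means stronger binding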
T4 chain: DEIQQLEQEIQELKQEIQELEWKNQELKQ

4H908-bN = molecular target: T5, 4H908-bN; assay: two-hybrid library CCNG1;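 note: natural log of median RNA to DNA barcode read ratio; higher means stronger binding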
T5 chain: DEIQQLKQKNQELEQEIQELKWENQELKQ

4H967-bN = molecular target: T6, 4H967-bN; assay: two-hybrid library CCNG1;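 note: natural log of median RNA to DNA barcode read ratio; higher means stronger binding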
T6 chain: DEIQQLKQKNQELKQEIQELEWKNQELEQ

4H454-bN = molecular target: T7, 4H454-bN; assay: two-hybrid library CCNG1
T7 chain: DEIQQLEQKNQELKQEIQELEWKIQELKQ

4H797-bN = molecular target: T8, 4H797-bN; assay: two-hybrid library CCNG1
T8 chain: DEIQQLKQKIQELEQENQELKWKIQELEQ

4H918-bN = molecular target: T9, 4H918-bN; assay: two-hybrid library CCNG1
T9 chain: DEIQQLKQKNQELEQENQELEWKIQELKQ

4H754-bN = molecular target: T10, 4H754-bN; assay: two-hybrid library CCNG1
T10 chain: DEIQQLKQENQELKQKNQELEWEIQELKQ

4H607-bN = molecular target: T11, 4H607-bN; assay: two-hybrid library CCNG1
T11 chain: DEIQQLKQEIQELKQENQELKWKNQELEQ

4H953-bN = molecular target: T12, 4H953-bN; assay: two-hybrid library CCNG1
T12 chain: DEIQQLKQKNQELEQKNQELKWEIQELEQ

4H462-bN = molecular target: T13, 4H462-bN; assay: two-hybrid library CCNG1
T13 chain: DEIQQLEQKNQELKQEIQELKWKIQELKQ

4H568-bN = molecular target: T14, 4H568-bN; assay: two-hybrid library CCNG1
T14 chain: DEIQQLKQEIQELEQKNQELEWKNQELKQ

4H883-bN = molecular target: T15, 4H883-bN; assay: two-hybrid library CCNG1
T15 chain: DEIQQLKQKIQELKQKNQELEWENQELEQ

P6A-bS = molecular target: T16, P6A-bS; assay: two-hybrid library CCNG1
T16 chain: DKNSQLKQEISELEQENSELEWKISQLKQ

4H4001-bN = molecular target: T17, 4H4001-bN; assay: two-hybrid library CCNG1
T17 chain: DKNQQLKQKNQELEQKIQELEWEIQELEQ

P9-AA = molecular target: T18, P9-AA; assay: two-hybrid library CCmax; settings: mean of both orientations
T18 chain: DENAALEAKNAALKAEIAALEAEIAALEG

P12-AA = molecular target: T19, P12-AA; assay: two-hybrid library CCmax; settings: mean of both orientations
T19 chain: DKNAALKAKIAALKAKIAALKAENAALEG

P11-AA = molecular target: T20, P11-AA; assay: two-hybrid library CCmax; settings: mean of both orientations
T20 chain: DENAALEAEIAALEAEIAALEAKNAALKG

P10-AA = molecular target: T21, P10-AA; assay: two-hybrid library CCmax; settings: mean of both orientations
T21 chain: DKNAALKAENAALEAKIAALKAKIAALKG

P2-AA = molecular target: T22, P2-AA; assay: two-hybrid library CCmax; settings: mean of both orientations
T22 chain: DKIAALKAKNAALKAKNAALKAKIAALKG

AP8-AA = molecular target: T23, AP8-AA; assay: two-hybrid library CCmax; settings: mean of both orientations
T23 chain: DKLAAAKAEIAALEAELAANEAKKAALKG

GCN2_T = assay: two-hybrid library CCmax
AP3-AA = molecular target: T24, AP3-AA; assay: two-hybrid library CCmax
T24 chain: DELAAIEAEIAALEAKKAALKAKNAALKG

AP4-AA = molecular target: T25, AP4-AA; assay: two-hybrid library CCmax; settings: mean of both orientations
T25 chain: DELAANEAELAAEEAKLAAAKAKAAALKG

P1-AA = molecular target: T26, P1-AA; assay: two-hybrid library CCmax; settings: mean of both orientations
T26 chain: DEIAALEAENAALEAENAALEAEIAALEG

P7-AA = molecular target: T27, P7-AA; assay: two-hybrid library CCmax; settings: mean of both orientations
T27 chain: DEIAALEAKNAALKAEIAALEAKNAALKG

AP6-AA = molecular target: T28, AP6-AA; assay: two-hybrid library CCmax; settings: mean of both orientations
T28 chain: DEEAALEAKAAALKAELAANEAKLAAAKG

AP7-AA = molecular target: T29, AP7-AA; assay: two-hybrid library CCmax; settings: mean of both orientations
T29 chain: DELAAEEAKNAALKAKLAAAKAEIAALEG

P3-AA = molecular target: T30, P3-AA; assay: two-hybrid library CCmax; settings: mean of both orientations
T30 chain: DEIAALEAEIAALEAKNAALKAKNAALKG

P4-AA = molecular target: T31, P4-AA; assay: two-hybrid library CCmax; settings: mean of both orientations
T31 chain: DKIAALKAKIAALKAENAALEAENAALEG

AP5-AA = molecular target: T32, AP5-AA; assay: two-hybrid library CCmax; settings: mean of both orientations
T32 chain: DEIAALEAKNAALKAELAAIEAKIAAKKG

P8-AA = molecular target: T33, P8-AA; assay: two-hybrid library CCmax; settings: mean of both orientations
T33 chain: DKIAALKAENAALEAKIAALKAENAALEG

APC8191-AA = molecular target: T34, APC8191-AA; assay: two-hybrid library CCmax; settings: mean of both orientations
T34 chain: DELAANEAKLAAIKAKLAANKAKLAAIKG

APC9319-AA = molecular target: T35, APC9319-AA; assay: two-hybrid library CCmax; settings: mean of both orientations
T35 chain: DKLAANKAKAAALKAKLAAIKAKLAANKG

APC3645-AA = molecular target: T36, APC3645-AA; assay: two-hybrid library CCmax; settings: mean of both orientations
T36 chain: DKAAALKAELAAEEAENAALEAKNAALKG

APC4011-AA = molecular target: T37, APC4011-AA; assay: two-hybrid library CCmax; settings: mean of both orientations
T37 chain: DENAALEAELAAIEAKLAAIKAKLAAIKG

APC1015-AA = molecular target: T38, APC1015-AA; assay: two-hybrid library CCmax; settings: mean of both orientations
T38 chain: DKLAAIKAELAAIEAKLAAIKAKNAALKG

APC7099-AA = molecular target: T39, APC7099-AA; assay: two-hybrid library CCmax; settings: mean of both orientations
T39 chain: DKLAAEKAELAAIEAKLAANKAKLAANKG

APC4436-AA = molecular target: T40, APC4436-AA; assay: two-hybrid library CCmax; settings: mean of both orientations
T40 chain: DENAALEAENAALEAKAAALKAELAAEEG

APC1434-AA = molecular target: T41, APC1434-AA; assay: two-hybrid library CCmax; settings: mean of both orientations
T41 chain: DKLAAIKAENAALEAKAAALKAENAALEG

APC2237-AA = molecular target: T42, APC2237-AA; assay: two-hybrid library CCmax; settings: mean of both orientations
T42 chain: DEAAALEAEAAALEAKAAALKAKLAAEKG

APC5383-AA = molecular target: T43, APC5383-AA; assay: two-hybrid library CCmax; settings: mean of both orientations
T43 chain: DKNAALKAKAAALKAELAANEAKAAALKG

APC9096-AA = molecular target: T44, APC9096-AA; assay: two-hybrid library CCmax; settings: mean of both orientations
T44 chain: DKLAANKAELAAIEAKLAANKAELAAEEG

4H807-AA = molecular target: T45, 4H807-AA; assay: two-hybrid library CCmax; settings: mean of both orientations
T45 chain: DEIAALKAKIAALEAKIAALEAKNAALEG

APC232-AA = molecular target: T46, APC232-AA; assay: two-hybrid library CCmax; settings: mean of both orientations
T46 chain: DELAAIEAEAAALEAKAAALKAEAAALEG

4H733-AA = molecular target: T47, 4H733-AA; assay: two-hybrid library CCmax
T47 chain: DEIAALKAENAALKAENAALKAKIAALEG

APC2405-AA = molecular target: T48, APC2405-AA; assay: two-hybrid library CCmax; settings: mean of both orientations
T48 chain: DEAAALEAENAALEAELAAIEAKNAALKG

APC6108-AA = molecular target: T49, APC6108-AA; assay: two-hybrid library CCmax; settings: mean of both orientations
T49 chain: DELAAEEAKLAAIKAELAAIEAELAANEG

APC4264-AA = molecular target: T50, APC4264-AA; assay: two-hybrid library CCmax; settings: mean of both orientations
T50 chain: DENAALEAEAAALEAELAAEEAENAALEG

APC8910-AA = molecular target: T51, APC8910-AA; assay: two-hybrid library CCmax; settings: mean of both orientations
T51 chain: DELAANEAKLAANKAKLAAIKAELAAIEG

interaction score (4H717-bN): -1.63
interaction score (4H457-bN): -0.688
interaction score (4H687-bN): -1.77
interaction score (4H72-bN): -1.03
interaction score (4H908-bN): -1.27
interaction score (4H967-bN): -2.32
interaction score (4H454-bN): 0.0134
interaction score (4H797-bN): -1.1
interaction score (4H918-bN): -0.935
interaction score (4H754-bN): -1.75
interaction score (4H607-bN): -1.46
interaction score (4H953-bN): -1.5
interaction score (4H462-bN): -0.667
interaction score (4H568-bN): -2.33
interaction score (4H883-bN): -0.641
interaction score (P6A-bS): -2.58
interaction score (4H4001-bN): -0.804
Binder: DKNQQLKQKNQELEQKIQELEWEIQELEQ [4H4001-bN]

interaction score (P9-AA): -1.41
interaction score (P12-AA): -1.03
interaction score (P11-AA): -1.01
interaction score (P10-AA): -0.602
interaction score (P2-AA): -1.75
interaction score (AP8-AA): -1.48
interaction score (GCN2_T): -1.8
interaction score (AP3-AA): 0.89
interaction score (AP4-AA): -1.84
interaction score (P1-AA): -2.22
interaction score (P7-AA): -1.23
interaction score (AP6-AA): -1.78
interaction score (AP7-AA): -1.93
interaction score (P3-AA): -1.84
interaction score (P4-AA): 1.61
interaction score (AP5-AA): -1.45
interaction score (P8-AA): -1.45
Binder: DELAAIEAEIAALEAKKAALKAKNAALKG [AP3-AA]

interaction score (APC8191-AA): -1.19
interaction score (APC9319-AA): -2.02
interaction score (APC3645-AA): -1.25
interaction score (APC4011-AA): -1.54
interaction score (APC1015-AA): -1.46
interaction score (APC7099-AA): -1.67
interaction score (APC4436-AA): -1.66
interaction score (APC1434-AA): -1.75
interaction score (APC2237-AA): -1.41
interaction score (APC5383-AA): -2.26
interaction score (APC9096-AA): -1.46
interaction score (4H807-AA): -1.53
interaction score (APC232-AA): -1.82
interaction score (4H733-AA): 2.16
interaction score (APC2405-AA): -1.28
interaction score (APC6108-AA): -1.39
interaction score (APC4264-AA): -1.83
interaction score (APC8910-AA): -1.37
Binder: DEIAALKAENAALKAENAALKAKIAALEG [4H733-AA]
